Measurements published in publication PMC4100148.

How the values were obtained:
[1] = target: SelP-H (His-rich domain of selenoprotein P), purified (human) (UniProt P49908); test: ITC; MicroCal iTC-200, 25 °C, Tris buffer (50 mM, pH 7.4); 1.3 mM Tub-C titrated into 228 μM SelP-H, 20 injections of 2 μL; sequential binding model (n = 2)
[2] = target: CFP-SelP' (Sec to Cys mutant of selenoprotein P fused to enhanced cyan fluorescence protein) (human) (UniProt P49908); test: FRET or BRET; sensitized emission method; HEK293T cells co-transfected with CFP (donor) and YFP (receptor) plasmids, confocal microscope 48 h after transfection, excitation 405 and 515 nm
[3] = target: CFP-SelP' (Sec to Cys mutant of selenoprotein P fused to enhanced cyan fluorescence protein) (human) (UniProt P49908); test: FRET or BRET; acceptor (receptor) photobleaching method; HEK293T cells co-transfected with CFP and YFP plasmids; ROI bleached at 515 nm, donor imaged at 405 nm excitation; E = 1 - I(prebleaching)/I(postbleaching)
[4] = target: CFP-SelP-H (His-rich domain of selenoprotein P fused to CFP) (human) (UniProt P49908); test: as above

Substance “Tub-C (the last 42 residues of α-tubulin), purified (from UniProt Q71U36 1-451) (domain or fragment)” has an association constant K1 (sequential binding model, first site) [1] of 2100 M⁻¹, an association constant K2 (sequential binding model, second site) [1] of 1500 M⁻¹ and a dH1 (sequential binding model, first site) [1] of -1.8 kcal/mol. It also gave a dH2 (sequential binding model, second site) [1] of 6.9 kcal/mol and a stoichiometry N [1] of 2.
“YFP-Tub (α-tubulin fused to yellow fluorescence protein) (from UniProt Q71U36 1-451) (natural protein)” was tested, and the FRET efficiency E (average) [2] was 21.3%, the FRET efficiency E (cell 1) [2] was 19.7% and the FRET efficiency E (cell 2) [2] was 18.7%. The FRET efficiency E (cell 3) [2] was 32.6%, the FRET efficiency E (cell 4) [2] was 17.7% and the FRET efficiency E (cell 5) [2] was 18%. It also gave an FRET efficiency E (average) [3] of 21.8%, an FRET efficiency E (cell 1) [3] of 17.6% and an FRET efficiency E (cell 2) [3] of 14.1%. For the same substance, the FRET efficiency E (cell 3) [3] was 12.2%, the FRET efficiency E (cell 4) [3] was 31.5% and the FRET efficiency E (cell 5) [3] was 20%. The FRET efficiency E (cell 6) [3] was 26.7%, the FRET efficiency E (cell 7) [3] was 19.2% and the FRET efficiency E (cell 8) [3] was 17.9%. For the same substance, the FRET efficiency E (cell 9) [3] was 35.6%, the FRET efficiency E (cell 10) [3] was 20.2% and the FRET efficiency E (cell 11) [3] was 25%.
Substance “YFP-Tub-C (C-terminal domain of α-tubulin, the last 42 residues, fused to YFP) (from UniProt Q71U36 1-451) (domain or fragment)” has an FRET efficiency E [4] of 22.8%.
